Here are results for two molecules from paper PMC2734165, “The Immune System Strikes Back: Cellular Immune Responses against Indoleamine 2,3-dioxygenase” (PLoS ONE, 2009).

In experiment [1] the test system is established murine cancers. Conditions: ref [17]; cited from earlier work. An excerpt: The state of lymphopenia following high-dose chemotherapy appears to provide a window of enhanced responsiveness to immunotherapy. Additionally, certain chemotherapeutic drugs may assist in breaking immune tolerance by preferentially inhibition of Tregs, [47]. Nonetheless, chemotherapy alone is never sufficient to break tolerance to tumors probably because the original tolerogenic mechanisms rapidly restore tolerance following each cycle of chemotherapy. In principle, therefore, chemotherapy might provide an environment in which IDO-based immunotherapy could have a synergistic ...

Experiment [2] concerns breast cancer cell line CAMA-1. The experiment in a line: 51Cr-release assay, CAMA-1. The experiment is classed as cell-based. Conditions: IFN-γ 100 U/ml for 2 days. The method, then:
(§1) Conventional ^51Cr-release assays for CTL-mediated cytotoxicity was carried out as described elsewhere. Target cells were T2-cells, in vitro generated autologous immature DC (iDC) and matured DC (mDC), in vitro generated allogeneic HLA-A2^+ iDC and mDC, autologous ex vivo isolated monocytes, T cells and B cells (isolated using CD14^+, CD3^+ or CD19^+ microbeads (MACS)), the natural killer target cell line K562, ex vivo enriched HLA-A2^+ AML-blasts (B and T cells were depleted from the bone marrow of AML patients using CD19^+ and CD3^+ microbeads (MACS)), the breast cancer cell lines CAMA-1 and MDA-MB-231, as well as the colon cancer cell lines HCT-116 and SW480 (all available at the American Type Culture Collection (ATCC)), and FM55M [27]. Lysis were blocked using the HLA specific mAb W6/32 (2 µg/100 µl). In some assays, target cells were treated with 100 U/ml IFN-γ for 2 days.
(§2) Figure 5 Functional capacity of IDO5-specific T cells to kill cancer cell lines treated with IFN-γ for up-regulation of IDO, or treated with IDO ShRNA for down-regulation of IDO. […] Intracellular IDO expression was given by a one-tailed two sampled t-test comparing MFIIDO (dark histograms) and MFIIsotype control (light histograms), where MFI is the Mean Fluorescence Intensity. […]

Experiment [3] has as its system breast cancer cell line MDA-MB-231. The experiment in a line: 51Cr-release assay, MDA-MB-231. The experiment is classed as cell-based. Conditions: IFN-γ 100 U/ml for 2 days. Here is the method: as §1, §2
In experiment [4] the test system is autologous CD14^+ monocytes, CD3^+ T cells and CD19^+ B cells. The experiment in a line: 51Cr-release assay, autologous monocytes, T cells and B cells. The conditions noted are these: CD19^+ B cells after IFN-γ treatment. The experiment is classed as cell-based.
Source text: Target cells were T2-cells, in vitro generated autologous immature DC (iDC) and matured DC (mDC), in vitro generated allogeneic HLA-A2^+ iDC and mDC, autologous ex vivo isolated monocytes, T cells and B cells (isolated using CD14^+, CD3^+ or CD19^+ microbeads (MACS)), the natural killer target cell line K562, ex vivo enriched HLA-A2^+ AML-blasts (B and T cells were depleted from the bone marrow of AML patients using CD19^+ and CD3^+ microbeads (MACS)), the breast cancer cell lines CAMA-1 and MDA-MB-231, as well as the colon cancer cell lines HCT-116 and SW480 (all available at the American Type Culture Collection (ATCC)), and FM55M [27]. Lysis were blocked using the HLA specific mAb W6/32 (2 µg/100 µl) [28]. In some assays, target cells were treated with 100 U/ml IFN-γ for 2 days.
Next, we tested the ability of RBS35 to lyse autologous monoctyes, T cells and B cells. For this purpose, we isolated CD14^+ monocytes, CD3^+ T cells and CD19^+ B cells directly ex vivo from IDO^+ PBMC. The isolated cells were subsequently used as target cells in a ^51Cr-release assay.
All assays were performed in different E∶T ratios. […] ( c ), Lysis of autologous CD14^+ monocytes, CD3^+ T cells and CD19^+ B cells isolated directly ex vivo from IDO^+ PBMC, and lysis of autologous CD14^+ monocytes, CD3^+ T cells and CD19^+ B cells after IFN-γ treatment. […]
Experiment [5] concerns IDO in CAMA-1 and MDA-MB-231. Kind of experiment: Intracellular IDO staining, breast cancer cell lines. The experiment is classed as cell-based. Here is the method: PBMC, DC, and cancer cells were examined for intracellular IDO expression using flow cytometry. After fixation and permeabilization (Cytofix/Cytoperm, BD), cells were stained with anti-IDO antibody (Millipore Corporation). For comparison, cells were stained with an isotype matched control (Millipore Corporation). After incubation, cells were washed twice with Perm/Washbuffer (BD) before staining with a FITC-labeled secondary antibody (DAKO). The samples were analyzed on BD FACS Aria, using DIVA software (BD Biosciences). Assuming normality, intracellular IDO expression was given by a one-tailed two sampled t-test comparing MFIIDO and MFIIsotype control, where MFI is the Mean Fluorescence Intensity. […]
Statistical analysis was performed on data on intracellular IDO staining. Assuming normality, intracellular IDO expression was given by a one-tailed two sampled t-test comparing MFIIDO and MFIIsotype control, where MFI is the Mean Fluorescence Intensity. […] HLA-A2 expression was determined using the same approach.
as §2

The subject of experiment [6] is HLA-A2 on CAMA-1 and MDA-MB-231. The experiment in a line: HLA-A2 surface staining, breast cancer cell lines. The experiment is classed as cell-based. The method, then:
Cancer cells were examined for HLA-A2 expression using flow cytometry. Cells were stained with a fluorochrome-coupled HLA-A2 mAb (BD Bioscience). For comparison, cells were stained with an isotype matched control. The samples were analyzed on BD FACS Aria, using DIVA software (BD Biosciences). Assuming normality, HLA-A2 expression was given by a one-tailed two sampled t-test comparing MFIHLA-A2 and MFIIsotype control, where MFI is the Mean Fluorescence Intensity. For p-values <0.05 (significance level) cells were defined HLA-A2^+. The fold of expression was defined as MFIHLA-A2/MFIIsotype control.
Statistical analysis was performed on data on intracellular IDO staining. Assuming normality, intracellular IDO expression was given by a one-tailed two sampled t-test comparing MFIIDO and MFIIsotype control, where MFI is the Mean Fluorescence Intensity. For p-values <0.05 (significance level) cells were defined IDO^+. […] HLA-A2 expression was determined using the same approach.
as §2

[7] abbreviates: CAMA-1 and MDA-MB-231, IFN-γ 100 U/ml for 2 days.

As for `Cn1cc(C[C@H](N)C(=O)O)c2ccccc21` [1-Methyl-Tryptophan], in experiment [1], the “Synergy with chemotherapy drugs” value is “work synergistically with different chemotherapy drugs in established murine cancers”.

B1: IFN-γ: IFN-γ, 100 U/ml for 2 days (protein, UniProt P01579 24-161, looked up)
Interferon gamma: QDPYVKEAENLKKYFNAGHSDVADNGTLFLGILKNWKEESDRKIMQSQIVSFYFKLFKNFKDDQSIQKSVETIKEDMNVKFFNSNKKKRDDFEKLTNYSVTDLNVQRKAIHELIQVMAELSPAAKTGKRKRSQMLFRG
Regarding B1, the “Effect on killing of CAMA-1 by RBS35” value in experiment [2] was “increased the killing by RBS35 of CAMA-1”. Besides, in experiment [3], the “Effect on killing of MDA-MB-231 by RBS35” value is listed as “introduced killing of the MDA-MB-231 cells”. For the same molecule, the “Effect of IFN-γ on killing of autologous immune cells by RBS35” value in experiment [4] is “introduced killing of the CD14^+ monocytes, but not of the T and B cells”. Besides, in experiment [5] (CAMA-1 + IFN-γ treatment, p = 0.004, before treatment 2.3 (p = 0.020), representative of 3 experiments), the “Fold of IDO expression, MFIIDO/MFIIsotype control” value was 3.5. For the same molecule, the “IDO expression after treatment” value in experiment [5] (setting [7]) is “increased the expression of IDO and HLA-A2 in both cell lines”. In experiment [6] (CAMA-1 + IFN-γ treatment, p = 0.002, before treatment 43.7 (p = 0.004), representative of 3 experiments), the “Fold of HLA-A2 expression (printed as MFIIDO/MFIHLA-A2)” value stood at 141.2. Also, the “HLA-A2 expression after treatment” value in experiment [6] (setting [7]) is “increased the expression of IDO and HLA-A2 in both cell lines”.
